The source of these data is PMC4396693, “Structural Basis of Latrophilin-FLRT Interaction” (Structure(London, England:1993), 2015).

B5: murine FLRT2 full ectodomain, wild type (residues 35-540) (domain or fragment)
chain: ACPSVCRCDRNFVYCNERSLTSVPLGIPEGVTVLYLHNNQINNAGFPAELHNVQSVHTVYLYGNQLDEFPMNLPKNVRVLHLQENNIQTISRAALAQLLKLEELHLDDNSISTVGVEDGAFREAISLKLLFLSKNHLSSVPVGLPVDLQELRVDENRIAVISDMAFQNLTSLERLIVDGNLLTNKGIAEGTFSHLTKLKEFSIVRNSLSHPPPDLPGTHLIRLYLQDNQINHIPLTAFANLRKLERLDISNNQLRMLTQGVFDHLSNLKQLTARNNPWFCDCSIKWVTEWLKYIPSSLNVRGFMCQGPEQVRGMAVRELNMNLLSCPTTTPGLPVFTPAPSTVSPTTQSPTLSVPSPSRGSVPPAPTPSKLPTIPDWDGRERVTPPISERIQLSIHFVNDTSIQVSWLSLFTVMAYKLTWVKMGHSLVGGIVQERIVSGEKQHLSLVNLEPRSTYRICLVPLDAFNYRTVEDTICSEATTHASYLNNGSNTASSHEQTTSHSMGSP

The target of test [1] is murine FLRT2 full ectodomain, wild type (residues 35-540) (murine) (UniProt Q8BLU0). The experiment in a line: SPR; one or the other of the two set-ups (FLRT2 ectodomain on CM5 with LPHN3 Olf as analyte, or LPHN3^Lec-Olf on streptavidin with FLRT2 ectodomain as analyte); the text does not say which value belongs to which; 25°C, PBS pH 7.5.
Test [2] has as its target T1, murine LPHN3 olfactomedin domain (LPHN3^Olf, residues 202-463) (murine, UniProt Q80TS3 202-463).
T1 chain: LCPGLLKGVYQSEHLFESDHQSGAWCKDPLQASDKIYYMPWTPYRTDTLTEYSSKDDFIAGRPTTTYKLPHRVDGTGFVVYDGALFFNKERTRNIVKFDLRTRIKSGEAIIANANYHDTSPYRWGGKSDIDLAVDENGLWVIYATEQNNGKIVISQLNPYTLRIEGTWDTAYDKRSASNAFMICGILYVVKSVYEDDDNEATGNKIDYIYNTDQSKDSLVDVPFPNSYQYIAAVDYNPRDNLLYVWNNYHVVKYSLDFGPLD
The experiment in a line: SPR.

Test [3] concerns the target B5. The test can be described thus: SPR.
Test [4] deals with T2, murine FLRT2 full ectodomain, wild type (residues 35-540) (murine, UniProt Q8BLU0 35-540).
T2 construct: Fibronectin leucine-rich repeat transmembrane protein 2 (FLRT2), mouse, full-length ectodomain, residues 35-540; also called FLRT2 ectodomain; source: HEK293S GlnTI- cells, transiently expressed
T2 sequence (looked up): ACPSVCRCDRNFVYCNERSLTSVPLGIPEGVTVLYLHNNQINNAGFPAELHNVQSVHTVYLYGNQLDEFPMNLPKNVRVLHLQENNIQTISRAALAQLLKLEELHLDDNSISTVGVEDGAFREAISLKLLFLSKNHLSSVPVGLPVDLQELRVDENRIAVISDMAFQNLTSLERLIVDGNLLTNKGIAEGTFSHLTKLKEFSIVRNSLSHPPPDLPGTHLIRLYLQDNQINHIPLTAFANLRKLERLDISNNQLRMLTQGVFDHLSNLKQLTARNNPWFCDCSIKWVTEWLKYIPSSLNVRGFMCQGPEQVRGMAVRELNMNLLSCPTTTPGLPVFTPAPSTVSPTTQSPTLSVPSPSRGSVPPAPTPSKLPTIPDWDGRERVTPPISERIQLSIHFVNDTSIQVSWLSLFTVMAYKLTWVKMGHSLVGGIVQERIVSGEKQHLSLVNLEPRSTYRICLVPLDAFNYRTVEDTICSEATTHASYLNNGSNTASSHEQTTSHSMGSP
The experiment in a line: SPR; biotinylated wild-type or mutant LPHN3^Lec-Olf on streptavidin-coated Biacore chips, FLRT2 ectodomain injected as analyte; equilibrium, 25°C, PBS pH 7.5, 0.005% polysorbate 20; 1:1 model. The following applies: both partners purified. (In SPR one partner is held on a chip, and binding of the other changes the refractive index at the surface.)

Test [5] addresses T3, murine LPHN3 olfactomedin domain (LPHN3^Olf, residues 202-463), Q80TS3.
T3 chain: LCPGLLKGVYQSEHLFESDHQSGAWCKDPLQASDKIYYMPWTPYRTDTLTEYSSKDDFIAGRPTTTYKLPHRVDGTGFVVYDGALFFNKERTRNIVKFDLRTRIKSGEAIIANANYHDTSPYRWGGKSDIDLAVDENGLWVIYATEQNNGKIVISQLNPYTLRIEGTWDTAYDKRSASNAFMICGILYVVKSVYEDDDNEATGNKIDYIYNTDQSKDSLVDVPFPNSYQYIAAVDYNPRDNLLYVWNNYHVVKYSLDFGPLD
The test can be described thus: SPR. The following applies: chain shown with the change.

Test [6] has as its target T2, murine FLRT2 full ectodomain, wild type …. The experiment in a line: SPR; FLRT2 ectodomains (wild type, UF, FF) amine-coupled to a CM5 Biacore chip, LPHN3 Olf domain injected as analyte; equilibrium, 25°C, PBS pH 7.5, 0.005% polysorbate 20; 1:1 model. The following applies: both partners purified.
Where [7] appears, read: maximum response at the highest LPHN3 Olf concentration plotted (about 2 µM), parent: est. 390, read off a plot.

As for wild-type LPHN3 proteins, the Kd in test [1] lay within 18 to 40 nM.

On to “murine FLRT2 full ectodomain, wild type (residues 35-540) (from UniProt Q8BLU0) FF”, for which, in test [2] (setting [7]), the response is -0 RU.

B1: murine LPHN3^Lec-Olf, wild type, biotinylated at a C-terminal Avi-Tag (domain or fragment, UniProt Q80TS3 92-463, looked up)
chain: PIPMAVVRRELSCESYPIELRCPGTDVIMIESANYGRTDDKICDSDPAQMENIRCYLPDAYKIMSQRCNNRTQCAVVAGPDVFPDPCPGTYKYLEVQYECVPYKVEQKVFLCPGLLKGVYQSEHLFESDHQSGAWCKDPLQASDKIYYMPWTPYRTDTLTEYSSKDDFIAGRPTTTYKLPHRVDGTGFVVYDGALFFNKERTRNIVKFDLRTRIKSGEAIIANANYHDTSPYRWGGKSDIDLAVDENGLWVIYATEQNNGKIVISQLNPYTLRIEGTWDTAYDKRSASNAFMICGILYVVKSVYEDDDNEATGNKIDYIYNTDQSKDSLVDVPFPNSYQYIAAVDYNPRDNLLYVWNNYHVVKYSLDFGPLD
modifications: biotin on the C-terminal Avi-Tag (enzymatic)
notes: Latrophilin 3 (LPHN3), mouse, lectin and olfactomedin-like domains; residues 92-463 are stated for the crystallization construct; Limits 92-463 are printed for the crystallization construct; the limits of the Avi-tagged construct may be in the Supplemental Experimental Procedures; also called LPHN^Lec-Olf; not shown: Avi-Tag, C-terminal, kept
As for B1, the affinity in test [3], expressed as Kd, was 18 nM. Also, the binding result in test [4] is “binds”.

B2: murine LPHN3^Lec-Olf mutant LPHN3^LF(3) (T267N+K269T), biotinylated at a C-terminal Avi-Tag (domain or fragment, UniProt Q80TS3 92-463, looked up)
chain: PIPMAVVRRELSCESYPIELRCPGTDVIMIESANYGRTDDKICDSDPAQMENIRCYLPDAYKIMSQRCNNRTQCAVVAGPDVFPDPCPGTYKYLEVQYECVPYKVEQKVFLCPGLLKGVYQSEHLFESDHQSGAWCKDPLQASDKIYYMPWTPYRTDTLTEYSSKDDFIAGRPTTNYTLPHRVDGTGFVVYDGALFFNKERTRNIVKFDLRTRIKSGEAIIANANYHDTSPYRWGGKSDIDLAVDENGLWVIYATEQNNGKIVISQLNPYTLRIEGTWDTAYDKRSASNAFMICGILYVVKSVYEDDDNEATGNKIDYIYNTDQSKDSLVDVPFPNSYQYIAAVDYNPRDNLLYVWNNYHVVKYSLDFGPLD
modifications: biotin on the C-terminal Avi-Tag (enzymatic)
notes: Latrophilin 3 (LPHN3), mouse, lectin and olfactomedin-like domains; residues 92-463 are stated for the crystallization construct; artificial N-linked glycosylation site; not shown: Avi-Tag, C-terminal, kept
Turning to B2, the binding result in test [4] was “binds”.

B3: murine LPHN3^Lec-Olf mutant LPHN3^LF(4) (P244N+R246T), biotinylated at a C-terminal Avi-Tag (domain or fragment, UniProt Q80TS3 92-463, looked up)
chain: PIPMAVVRRELSCESYPIELRCPGTDVIMIESANYGRTDDKICDSDPAQMENIRCYLPDAYKIMSQRCNNRTQCAVVAGPDVFPDPCPGTYKYLEVQYECVPYKVEQKVFLCPGLLKGVYQSEHLFESDHQSGAWCKDPLQASDKIYYMPWTNYTTDTLTEYSSKDDFIAGRPTTTYKLPHRVDGTGFVVYDGALFFNKERTRNIVKFDLRTRIKSGEAIIANANYHDTSPYRWGGKSDIDLAVDENGLWVIYATEQNNGKIVISQLNPYTLRIEGTWDTAYDKRSASNAFMICGILYVVKSVYEDDDNEATGNKIDYIYNTDQSKDSLVDVPFPNSYQYIAAVDYNPRDNLLYVWNNYHVVKYSLDFGPLD
modifications: biotin on the C-terminal Avi-Tag (enzymatic)
notes: as for B2
With B3, in test [4], the binding result is “binds”.

B4: murine FLRT2 full ectodomain, wild type (residues 35-540), Q8BLU0 UF (protein)
chain: ACPSVCRCDRNFVYCNERSLTSVPLGIPEGVTVLYLHNNQINNAGFPAELHNVQSVHTVYLYGNQLDEFPMNLPKNVRVLHLQENNIQTISRAALAQLLKLEELHLDDNSISTVGVEDGAFREAISLKLLFLSKNNLSSVPVGLPVDLQELRVDENRIAVISDMAFQNLTSLERLIVDGNLLTNKGIAEGTFSHLTKLKEFSIVRNSLSHPPPDLPGTHLIRLYLQDNQINHIPLTAFANLRKLERLDISNNQLRMLTQGVFDHLSNLKQLTARNNPWFCDCSIKWVTEWLKYIPSSLNVRGFMCQGPEQVRGMAVRELNMNLLSCPTTTPGLPVFTPAPSTVSPTTQSPTLSVPSPSRGSVPPAPTPSKLPTIPDWDGRERVTPPISERIQLSIHFVNDTSIQVSWLSLFTVMAYKLTWVKMGHSLVGGIVQERIVSGEKQHLSLVNLEPRSTYRICLVPLDAFNYRTVEDTICSEATTHASYLNNGSNTASSHEQTTSHSMGSP
For the molecule B4, the Kd in test [5] (FLRT2 ectodomains immobilized on a CM5 Biacore chip, LPHN3 olfactomedin domain injected as analyte, 1:1 binding model, parent: 40 nM) is 15 nM. Besides, in test [5] (setting [7]), the response came out at 390 RU. In turn, B5 registered a dissociation constant (Kd) in test [2] of 40 nM.

B6: murine LPHN3 olfactomedin domain (LPHN3^Olf, residues 202-463) (domain or fragment, UniProt Q80TS3 202-463, looked up)
chain: LCPGLLKGVYQSEHLFESDHQSGAWCKDPLQASDKIYYMPWTPYRTDTLTEYSSKDDFIAGRPTTTYKLPHRVDGTGFVVYDGALFFNKERTRNIVKFDLRTRIKSGEAIIANANYHDTSPYRWGGKSDIDLAVDENGLWVIYATEQNNGKIVISQLNPYTLRIEGTWDTAYDKRSASNAFMICGILYVVKSVYEDDDNEATGNKIDYIYNTDQSKDSLVDVPFPNSYQYIAAVDYNPRDNLLYVWNNYHVVKYSLDFGPLD
notes: Latrophilin 3 (LPHN3), mouse, olfactomedin-like domain, residues 202-463; also called LPHN3 Olf domain; olfactomedin domain of murine LPHN3; source: kifunensine-treated HEK293T cells, transiently expressed, purified
As to B6, in test [6], the binding result is “binds”.

What is called Kd is the constant that tells how readily two partners part at equilibrium.
